Here are results for 1 substance from paper PMC12514839 (Protein science : a publication of the Protein Society, 2025).

For the test, the target named is CU228, putative PAS-HTH transcription factor from Candidatus Solibacter usitatus (Candidatus Solibacter usitatus). In words: SEC-MALS.

For the substance “CU228, putative PAS-HTH transcription factor from Candidatus Solibacter usitatus (natural protein)”, the stoichiometry N is 2.
